One molecule from PMC4652220, “Imaging and energetics of single SSB-ssDNA molecules reveal intramolecular condensation and insight into RecOR function” (eLife, 2015) can be followed below.

The target of this assay is T1, RecO (UniProt P0A7H3 1-242).
T1 construct: RecO recombination mediator protein; source: purified as previously described (Kantake et al., 2002)
T1 sequence (looked up): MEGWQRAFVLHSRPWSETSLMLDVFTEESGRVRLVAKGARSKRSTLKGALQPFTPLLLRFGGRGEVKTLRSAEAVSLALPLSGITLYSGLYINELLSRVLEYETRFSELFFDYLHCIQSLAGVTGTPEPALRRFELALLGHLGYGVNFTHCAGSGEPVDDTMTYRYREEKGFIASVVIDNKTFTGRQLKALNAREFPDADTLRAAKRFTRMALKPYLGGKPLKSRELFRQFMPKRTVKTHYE
Description: magnetic tweezers force spectroscopy; single tethered ssDNA; added in turn: 100 mM NaOAc and 1 mM Mg(OAc)2, 200 nM SSB, 100 nM RecO, 1 μM RecR; 20 mM TrisOAc pH 8.0, 50 mM DTT; 25°C. As to conditions: both partners purified.

B1: RecR (natural protein, UniProt P0A7H6 1-201, looked up)
chain: MQTSPLLTQLMEALRCLPGVGPKSAQRMAFTLLQRDRSGGMRLAQALTRAMSEIGHCADCRTFTEQEVCNICSNPRRQENGQICVVESPADIYAIEQTGQFSGRYFVLMGHLSPLDGIGPDDIGLDRLEQRLAEEKITEVILATNPTVEGEATANYIAELCAQYDVEASRIAHGVPVGGELEMVDGTTLSHSLAGRHKIRF
notes: RecR recombination protein; It cites other work for RecR dimers/tetramers; source: purified as previously described (Kantake et al., 2002)
On to B1, for which the binding result is given as “binds”.
